Laboratory results from publication PMC7035956 (Nature chemical biology, 2019).

B1: Ube2T (enzyme)
chain: MQRASRLKRELHMLATEPPPGITCWQDKDQMDDLRAQILGGANTPYEKGVFKLEVIIPERYPFEPPQIRFLTPIYHPNIDSAGRICLDVLKLPPKGAWRPSLNIATVLTSIQLLMSEPNPDDPLMADISSEFKYNKPAFLKNARQWTEKHARQKQKADEEEMLDNLPEAGDSRVHNSTQKRKASQLVGIEKKFHPDV
B2: Ube2T D32A+D33A+L92A (enzyme)
chain: MQRASRLKRELHMLATEPPPGITCWQDKDQMAALRAQILGGANTPYEKGVFKLEVIIPERYPFEPPQIRFLTPIYHPNIDSAGRICLDVLKAPPKGAWRPSLNIATVLTSIQLLMSEPNPDDPLMADISSEFKYNKPAFLKNARQWTEKHARQKQKADEEEMLDNLPEAGDSRVHNSTQKRKASQLVGIEKKFHPDV
B3: Ube2T T23R+W25Q (enzyme)
chain: MQRASRLKRELHMLATEPPPGIRCQQDKDQMDDLRAQILGGANTPYEKGVFKLEVIIPERYPFEPPQIRFLTPIYHPNIDSAGRICLDVLKLPPKGAWRPSLNIATVLTSIQLLMSEPNPDDPLMADISSEFKYNKPAFLKNARQWTEKHARQKQKADEEEMLDNLPEAGDSRVHNSTQKRKASQLVGIEKKFHPDV

How the values were obtained:
[1] = target: Xenopus laevis FANCD2 (xFANCD2) (Xenopus laevis); assay: MST
[2] = target: T1, FANCL URD-RING fragment (FANCL^UR) (human, UniProt Q9NW38 109-375); assay: ITC
T1 sequence: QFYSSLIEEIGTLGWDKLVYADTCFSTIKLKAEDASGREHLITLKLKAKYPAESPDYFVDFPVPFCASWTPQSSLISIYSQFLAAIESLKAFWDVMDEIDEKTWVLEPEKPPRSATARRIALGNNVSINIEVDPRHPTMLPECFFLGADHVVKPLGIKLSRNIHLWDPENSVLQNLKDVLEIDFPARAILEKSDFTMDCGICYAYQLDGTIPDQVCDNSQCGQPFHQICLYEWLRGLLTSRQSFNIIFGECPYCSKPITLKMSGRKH

Ube2T = target: B1; assay: ITC
Ube2T D32A+D33A+L92A = target: B2; assay: ITC
Ube2T T23R+W25Q = target: B3; assay: ITC

Row | Molecule | Kd [2] [nM] | binding result [2] | other results
1 | Ube2T^1-152 (from UniProt Q9NPD8 1-152) (domain or fragment) |  |  | Kd [1]: 320000 nM
2 | Ube2Tv3 in the Ube2T^1-152 background (E54R+P93G+P94G) (from UniProt Q9NPD8 1-152) (domain or fragment) |  |  | Kd [1]: 238000 nM
3 | B1 | ~119 |  | 
4 | Ube2T K91A (enzyme) MQRASRLKRELHMLATEPPPGITCWQDKDQMDDLRAQILGGANTPYEKGVFKLEVIIPERYPFEPPQIRFLTPIYHPNIDSAGRICLDVLALPPKGAWRPSLNIATVLTSIQLLMSEPNPDDPLMADISSEFKYNKPAFLKNARQWTEKHARQKQKADEEEMLDNLPEAGDSRVHNSTQKRKASQLVGIEKKFHPDV |  | binds | 
5 | Ube2T K95A (enzyme) MQRASRLKRELHMLATEPPPGITCWQDKDQMDDLRAQILGGANTPYEKGVFKLEVIIPERYPFEPPQIRFLTPIYHPNIDSAGRICLDVLKLPPAGAWRPSLNIATVLTSIQLLMSEPNPDDPLMADISSEFKYNKPAFLKNARQWTEKHARQKQKADEEEMLDNLPEAGDSRVHNSTQKRKASQLVGIEKKFHPDV |  | binds | 
6 | B2 | ~119 |  | 
7 | Ube2T R84S+K91A+K95A (enzyme) MQRASRLKRELHMLATEPPPGITCWQDKDQMDDLRAQILGGANTPYEKGVFKLEVIIPERYPFEPPQIRFLTPIYHPNIDSAGSICLDVLALPPAGAWRPSLNIATVLTSIQLLMSEPNPDDPLMADISSEFKYNKPAFLKNARQWTEKHARQKQKADEEEMLDNLPEAGDSRVHNSTQKRKASQLVGIEKKFHPDV |  | binds | 
8 | Ube2T R84S (enzyme) MQRASRLKRELHMLATEPPPGITCWQDKDQMDDLRAQILGGANTPYEKGVFKLEVIIPERYPFEPPQIRFLTPIYHPNIDSAGSICLDVLKLPPKGAWRPSLNIATVLTSIQLLMSEPNPDDPLMADISSEFKYNKPAFLKNARQWTEKHARQKQKADEEEMLDNLPEAGDSRVHNSTQKRKASQLVGIEKKFHPDV |  | binds | 
9 | FANCL RING (FANCL^R) (domain or fragment) EIDFPARAILEKSDFTMDCGICYAYQLDGTIPDQVCDNSQCGQPFHQICLYEWLRGLLTSRQSFNIIFGECPYCSKPITLKMSGRKH |  |  | Kd (Ube2T): ~253 nM; Kd (Ube2T D32A+D33A+L92A): ~253 nM; Kd (Ube2T T23R+W25Q): ~253 nM
10 | B3 | 200 |  | 
